Source: patent US20140087995A1 (published 2014)
Numbered stars: 1 amine (or outer) side, 2 acyl side, 3 side chain; on linkers, the order of the positions; unused ones are H or OH. Bridge positions count the residues as written; N and C are the ends. Side chains are listed from the residue outwards. Ends that are not written are not given here. * marks the point of attachment. C20 diacid = O=C(O)CCCCCCCCCCCCCCCCCCC(=O)*; C16 diacid = O=C(O)CCCCCCCCCCCCCCC(=O)*; γGlu = O=C(O)[C@H](CCC(=O)[*:2])N[*:1]; C14 diacid = O=C(O)CCCCCCCCCCCCC(=O)*

Legend:
[1] = target: T1, human calcitonin receptor (human, UniProt P30988 25-474); test: SPA radioligand competition (125I-calcitonin), membranes of BHK cells with human calcitonin receptor
T1 construct: whole, on cells; also called hCTR; hCT
T1 sequence (looked up): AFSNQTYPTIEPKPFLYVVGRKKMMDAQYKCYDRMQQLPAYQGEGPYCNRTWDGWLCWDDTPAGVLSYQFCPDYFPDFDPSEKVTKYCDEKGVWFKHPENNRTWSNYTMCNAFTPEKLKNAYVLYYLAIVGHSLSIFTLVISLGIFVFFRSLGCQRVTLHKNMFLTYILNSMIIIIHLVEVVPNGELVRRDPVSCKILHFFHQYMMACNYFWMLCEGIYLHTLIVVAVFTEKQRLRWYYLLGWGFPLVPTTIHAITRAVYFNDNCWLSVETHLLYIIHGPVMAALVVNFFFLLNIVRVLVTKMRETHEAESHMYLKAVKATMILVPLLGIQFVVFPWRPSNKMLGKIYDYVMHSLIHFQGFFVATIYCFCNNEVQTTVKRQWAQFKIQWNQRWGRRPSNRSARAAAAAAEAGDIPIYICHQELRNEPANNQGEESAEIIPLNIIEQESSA
Outline: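 BHK hCTR membranes 35 ng/μL + SPA beads 0.05 mg/well; buffer 50 mM Hepes pH 7.4, 1 mM CaCl2, 5 mM MgCl₂, 0.1% OA, 0.02% Tween20. 120 min, 25° C., shaking. Scintillation count; IC50 by one-site binding competition.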

[2] = target: T1, human calcitonin receptor; test: ratio of IC50 at human calcitonin receptor to IC50 at human amylin receptor (SPA competition assays)
Outline: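 Scintillation proximity competition binding on cell membranes at 35 ng/μL with SPA beads, in 50 mM Hepes pH 7.4, 1 mM CaCl2, 5 mM MgCl₂, 0.1% OA, 0.02% Tween20. Incubated 120 min at 25° C with shaking. IC₅₀ from one-site competition fit.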

B1: N^-1-[(4S)-4-carboxy-4-(19-carboxynonadecanoylamino)butanoyl]-Gly[Arg1,His14,Arg17,Pro21,Pro27,His34]-h-amylin (peptide)
peptide: {C20 diacid-γGlu}-GRCNTATCATQRLAHFLRHSSPNFGAIPSSTNVGHNTY-NH2
modifications: disulfide 3-8
SMILES: CC[C@H](C)[C@H](NC(=O)[C@H](C)NC(=O)CNC(=O)[C@H](Cc1ccccc1)NC(=O)[C@H](CC(N)=O)NC(=O)[C@@H]1CCCN1C(=O)[C@H](CO)NC(=O)[C@H](CO)NC(=O)[C@H](Cc1c[nH]cn1)NC(=O)[C@H](CCCNC(=N)N)NC(=O)[C@H](CC(C)C)NC(=O)[C@H](Cc1ccccc1)NC(=O)[C@H](Cc1c[nH]cn1)NC(=O)[C@H](C)NC(=O)[C@H](CC(C)C)NC(=O)[C@H](CCCNC(=N)N)NC(=O)[C@H](CCC(N)=O)NC(=O)[C@@H](NC(=O)[C@H](C)NC(=O)[C@@H]1CSSC[C@H](NC(=O)[C@H](CCCNC(=N)N)NC(=O)CNC(=O)CC[C@H](NC(=O)CCCCCCCCCCCCCCCCCCC(=O)O)C(=O)O)C(=O)N[C@@H](CC(N)=O)C(=O)N[C@@H]([C@@H](C)O)C(=O)N[C@@H](C)C(=O)N[C@@H]([C@@H](C)O)C(=O)N1)[C@@H](C)O)C(=O)N1CCC[C@H]1C(=O)N[C@@H](CO)C(=O)N[C@@H](CO)C(=O)N[C@H](C(=O)N[C@@H](CC(N)=O)C(=O)N[C@H](C(=O)NCC(=O)N[C@@H](Cc1c[nH]cn1)C(=O)N[C@@H](CC(N)=O)C(=O)N[C@H](C(=O)N[C@@H](Cc1ccc(O)cc1)C(N)=O)[C@@H](C)O)C(C)C)[C@@H](C)O
notes: also called compound 100
What does the source list for B1?
IC50 [1]: 66.3 nM; Ratio hCT/hAmylin binding [2]: 65.3

B2: N{-1}-[(4S)-4-carboxy-4-(19-carboxynonadecanoylamino)butanoyl]-Gly[Arg1,His14,Arg17,Pro21,Pro27]-h-amylin (peptide)
peptide: {C20 diacid-γGlu}-GRCNTATCATQRLAHFLRHSSPNFGAIPSSTNVGSNTY-NH2
modifications: disulfide 3-8
SMILES: CC[C@H](C)[C@H](NC(=O)[C@H](C)NC(=O)CNC(=O)[C@H](Cc1ccccc1)NC(=O)[C@H](CC(N)=O)NC(=O)[C@@H]1CCCN1C(=O)[C@H](CO)NC(=O)[C@H](CO)NC(=O)[C@H](Cc1c[nH]cn1)NC(=O)[C@H](CCCNC(=N)N)NC(=O)[C@H](CC(C)C)NC(=O)[C@H](Cc1ccccc1)NC(=O)[C@H](Cc1c[nH]cn1)NC(=O)[C@H](C)NC(=O)[C@H](CC(C)C)NC(=O)[C@H](CCCNC(=N)N)NC(=O)[C@H](CCC(N)=O)NC(=O)[C@@H](NC(=O)[C@H](C)NC(=O)[C@@H]1CSSC[C@H](NC(=O)[C@H](CCCNC(=N)N)NC(=O)CNC(=O)CC[C@H](NC(=O)CCCCCCCCCCCCCCCCCCC(=O)O)C(=O)O)C(=O)N[C@@H](CC(N)=O)C(=O)N[C@@H]([C@@H](C)O)C(=O)N[C@@H](C)C(=O)N[C@@H]([C@@H](C)O)C(=O)N1)[C@@H](C)O)C(=O)N1CCC[C@H]1C(=O)N[C@@H](CO)C(=O)N[C@@H](CO)C(=O)N[C@H](C(=O)N[C@@H](CC(N)=O)C(=O)N[C@H](C(=O)NCC(=O)N[C@@H](CO)C(=O)N[C@@H](CC(N)=O)C(=O)N[C@H](C(=O)N[C@@H](Cc1ccc(O)cc1)C(N)=O)[C@@H](C)O)C(C)C)[C@@H](C)O
notes: also called compound 99
For B2, which IC50 [1] is on record?
Its IC50 is 35 nM.

And the “Ratio hCT/hAmylin binding” value [2]?
Its value is 100.

B3: N^-1-[(4S)-4-carboxy-4-(19-carboxynonadecanoylamino)butanoyl]-Gly[Arg1,Ala14,Arg17,Pro21,Pro27,His34]-h-amylin (peptide)
peptide: {C20 diacid-γGlu}-GRCNTATCATQRLAAFLRHSSPNFGAIPSSTNVGHNTY-NH2
modifications: disulfide 3-8
SMILES: CC[C@H](C)[C@H](NC(=O)[C@H](C)NC(=O)CNC(=O)[C@H](Cc1ccccc1)NC(=O)[C@H](CC(N)=O)NC(=O)[C@@H]1CCCN1C(=O)[C@H](CO)NC(=O)[C@H](CO)NC(=O)[C@H](Cc1c[nH]cn1)NC(=O)[C@H](CCCNC(=N)N)NC(=O)[C@H](CC(C)C)NC(=O)[C@H](Cc1ccccc1)NC(=O)[C@H](C)NC(=O)[C@H](C)NC(=O)[C@H](CC(C)C)NC(=O)[C@H](CCCNC(=N)N)NC(=O)[C@H](CCC(N)=O)NC(=O)[C@@H](NC(=O)[C@H](C)NC(=O)[C@@H]1CSSC[C@H](NC(=O)[C@H](CCCNC(=N)N)NC(=O)CNC(=O)CC[C@H](NC(=O)CCCCCCCCCCCCCCCCCCC(=O)O)C(=O)O)C(=O)N[C@@H](CC(N)=O)C(=O)N[C@@H]([C@@H](C)O)C(=O)N[C@@H](C)C(=O)N[C@@H]([C@@H](C)O)C(=O)N1)[C@@H](C)O)C(=O)N1CCC[C@H]1C(=O)N[C@@H](CO)C(=O)N[C@@H](CO)C(=O)N[C@H](C(=O)N[C@@H](CC(N)=O)C(=O)N[C@H](C(=O)NCC(=O)N[C@@H](Cc1c[nH]cn1)C(=O)N[C@@H](CC(N)=O)C(=O)N[C@H](C(=O)N[C@@H](Cc1ccc(O)cc1)C(N)=O)[C@@H](C)O)C(C)C)[C@@H](C)O
What does the source list for B3?
IC50 [1]: 29.2 nM; Ratio hCT/hAmylin binding [2]: 68.6

What does the source list for {C20 diacid-γGlu}-GRCNTATCATQRLAAFLRHSSPNFGAIPSSTNVGPNTY-NH2 (disulfide 3-8)?
IC50 [1]: 3 nM; Ratio hCT/hAmylin binding [2]: 26.5

B4: N^-1-[(4S)-4-carboxy-4-(19-carboxynonadecanoylamino)butanoyl]-Gly[Arg1,His14,Arg17,Pro21,Pro27,Pro34]-h-amylin (peptide)
peptide: {C20 diacid-γGlu}-GRCNTATCATQRLAHFLRHSSPNFGAIPSSTNVGPNTY-NH2
modifications: disulfide 3-8
SMILES: CC[C@H](C)[C@H](NC(=O)[C@H](C)NC(=O)CNC(=O)[C@H](Cc1ccccc1)NC(=O)[C@H](CC(N)=O)NC(=O)[C@@H]1CCCN1C(=O)[C@H](CO)NC(=O)[C@H](CO)NC(=O)[C@H](Cc1c[nH]cn1)NC(=O)[C@H](CCCNC(=N)N)NC(=O)[C@H](CC(C)C)NC(=O)[C@H](Cc1ccccc1)NC(=O)[C@H](Cc1c[nH]cn1)NC(=O)[C@H](C)NC(=O)[C@H](CC(C)C)NC(=O)[C@H](CCCNC(=N)N)NC(=O)[C@H](CCC(N)=O)NC(=O)[C@@H](NC(=O)[C@H](C)NC(=O)[C@@H]1CSSC[C@H](NC(=O)[C@H](CCCNC(=N)N)NC(=O)CNC(=O)CC[C@H](NC(=O)CCCCCCCCCCCCCCCCCCC(=O)O)C(=O)O)C(=O)N[C@@H](CC(N)=O)C(=O)N[C@@H]([C@@H](C)O)C(=O)N[C@@H](C)C(=O)N[C@@H]([C@@H](C)O)C(=O)N1)[C@@H](C)O)C(=O)N1CCC[C@H]1C(=O)N[C@@H](CO)C(=O)N[C@@H](CO)C(=O)N[C@H](C(=O)N[C@@H](CC(N)=O)C(=O)N[C@H](C(=O)NCC(=O)N1CCC[C@H]1C(=O)N[C@@H](CC(N)=O)C(=O)N[C@H](C(=O)N[C@@H](Cc1ccc(O)cc1)C(N)=O)[C@@H](C)O)C(C)C)[C@@H](C)O
With B4 as the binder, how does the IC50 [1] read?
The IC50 was 7.87 nM.

What about the “Ratio hCT/hAmylin binding” value [2] of the same binder?
Its value is 36.2.

B5: N^ε1-[(4S)-4-carboxy-4-(15-carboxypentadecanoylamino)butanoyl]-[Arg17,Pro21,Pro27,His34]-h-amylin (peptide)
peptide: K([γGlu-C16 diacid])CNTATCATQRLANFLRHSSPNFGAIPSSTNVGHNTY-NH2
modifications: disulfide 2-7; N-terminus assumed
SMILES: CC[C@H](C)[C@H](NC(=O)[C@H](C)NC(=O)CNC(=O)[C@H](Cc1ccccc1)NC(=O)[C@H](CC(N)=O)NC(=O)[C@@H]1CCCN1C(=O)[C@H](CO)NC(=O)[C@H](CO)NC(=O)[C@H](Cc1c[nH]cn1)NC(=O)[C@H](CCCNC(=N)N)NC(=O)[C@H](CC(C)C)NC(=O)[C@H](Cc1ccccc1)NC(=O)[C@H](CC(N)=O)NC(=O)[C@H](C)NC(=O)[C@H](CC(C)C)NC(=O)[C@H](CCCNC(=N)N)NC(=O)[C@H](CCC(N)=O)NC(=O)[C@@H](NC(=O)[C@H](C)NC(=O)[C@@H]1CSSC[C@H](NC(=O)[C@@H](N)CCCCNC(=O)CC[C@H](NC(=O)CCCCCCCCCCCCCCC(=O)O)C(=O)O)C(=O)N[C@@H](CC(N)=O)C(=O)N[C@@H]([C@@H](C)O)C(=O)N[C@@H](C)C(=O)N[C@@H]([C@@H](C)O)C(=O)N1)[C@@H](C)O)C(=O)N1CCC[C@H]1C(=O)N[C@@H](CO)C(=O)N[C@@H](CO)C(=O)N[C@H](C(=O)N[C@@H](CC(N)=O)C(=O)N[C@H](C(=O)NCC(=O)N[C@@H](Cc1c[nH]cn1)C(=O)N[C@@H](CC(N)=O)C(=O)N[C@H](C(=O)N[C@@H](Cc1ccc(O)cc1)C(N)=O)[C@@H](C)O)C(C)C)[C@@H](C)O
Which results are given for B5?
IC50 [1]: 10.8 nM; Ratio hCT/hAmylin binding [2]: 18.5

B6: N^ε1-[(4S)-4-carboxy-4-(13-carboxytridecanoylamino)butanoyl]-[Arg17,Pro21,Pro27,His34]-h-amylin (peptide)
peptide: K([γGlu-C14 diacid])CNTATCATQRLANFLRHSSPNFGAIPSSTNVGHNTY-NH2
modifications: disulfide 2-7; N-terminus assumed
SMILES: CC[C@H](C)[C@H](NC(=O)[C@H](C)NC(=O)CNC(=O)[C@H](Cc1ccccc1)NC(=O)[C@H](CC(N)=O)NC(=O)[C@@H]1CCCN1C(=O)[C@H](CO)NC(=O)[C@H](CO)NC(=O)[C@H](Cc1c[nH]cn1)NC(=O)[C@H](CCCNC(=N)N)NC(=O)[C@H](CC(C)C)NC(=O)[C@H](Cc1ccccc1)NC(=O)[C@H](CC(N)=O)NC(=O)[C@H](C)NC(=O)[C@H](CC(C)C)NC(=O)[C@H](CCCNC(=N)N)NC(=O)[C@H](CCC(N)=O)NC(=O)[C@@H](NC(=O)[C@H](C)NC(=O)[C@@H]1CSSC[C@H](NC(=O)[C@@H](N)CCCCNC(=O)CC[C@H](NC(=O)CCCCCCCCCCCCC(=O)O)C(=O)O)C(=O)N[C@@H](CC(N)=O)C(=O)N[C@@H]([C@@H](C)O)C(=O)N[C@@H](C)C(=O)N[C@@H]([C@@H](C)O)C(=O)N1)[C@@H](C)O)C(=O)N1CCC[C@H]1C(=O)N[C@@H](CO)C(=O)N[C@@H](CO)C(=O)N[C@H](C(=O)N[C@@H](CC(N)=O)C(=O)N[C@H](C(=O)NCC(=O)N[C@@H](Cc1c[nH]cn1)C(=O)N[C@@H](CC(N)=O)C(=O)N[C@H](C(=O)N[C@@H](Cc1ccc(O)cc1)C(N)=O)[C@@H](C)O)C(C)C)[C@@H](C)O
Which IC50 [1] does the source give for B6 here?
Its IC50 is 24.3 nM.

And the “Ratio hCT/hAmylin binding” value [2]?
The value was 23.5.
